Test results from publication PMC12985673, “Weaker neuroligin 2–neurexin β1 interaction tethers membranes and recruits gephyrin at membrane junctions through clustering” (Science Advances, 2026).

Molecular target: the molecule itself
Test: cryo-EM structure; full-length NL2 alone; 20 mM Hepes-Na pH 7.5, 150 mM NaCl, 1 mM MgCl2, 0.5 mM CaCl2, 0.06% digitonin, brain polar lipid extract; only the ECD resolved

B1: full-length neuroligin 2 (NL2), mouse, without the splice insert at site A (receptor, UniProt Q69ZK9 15-836, looked up)
chain: QRGGGGPGGGAPGGPGLGLGSLGEERFPVVNTAYGRVRGVRRELNNEILGPVVQFLGVPYATPPLGARRFQPPEAPASWPGVRNATTLPPACPQNLHGALPAIMLPVWFTDNLEAAATYVQNQSEDCLYLNLYVPTEDDIRDSGKKPVMLFLHGGSYMEGTGNMFDGSVLAAYGNVIVVTLNYRLGVLGFLSTGDQAAKGNYGLLDQIQALRWLSENIAHFGGDPERITIFGSGAGASCVNLLILSHHSEGLFQKAIAQSGTAISSWSVNYQPLKYTRLLAAKVGCDREDSTEAVECLRRKSSRELVDQDVQPARYHIAFGPVVDGDVVPDDPEILMQQGEFLNYDMLIGVNQGEGLKFVEDSAESEDGVSASAFDFTVSNFVDNLYGYPEGKDVLRETIKFMYTDWADRDNGEMRRKTLLALFTDHQWVAPAVATAKLHADYQSPVYFYTFYHHCQAEGRPEWADAAHGDELPYVFGVPMVGATDLFPCNFSKNDVMLSAVVMTYWTNFAKTGDPNQPVPQDTKFIHTKPNRFEEVVWSKFNSKEKQYLHIGLKPRVRDNYRANKVAFWLELVPHLHNLHTELFTTTTRLPPYATRWPPRTPGPGTSGTRRPPPPATLPPESDIDLGPRAYDRFPGDSRDYSTELSVTVAVGASLLFLNILAFAALYYKRDRRQELRCRRLSPPGGSGSGVPGGGPLLPTAGRELPPEEELVSLQLKRGGGVGADPAEALRPACPPDYTLALRRAPDDVPLLAPGALTLLPSGLGPPPPPPPPSLHPFGPFPPPPPTATSHNNTLPHPHSTTRV
modifications: N-glycans
notes: Neuroligin 2, mouse, amplified from pNICE-NL2(−); lacks the splice insert at site A (missing G153-T169 in UniProt Q69ZK9); its own signal peptide was replaced with that of NL1 followed by an HA tag; PreScission site before the C-terminal EGFP; S1A; also called NL2 WT; wild-type NL2; source: HEK293T, BacMam virus, purified (GFP-nanobody resin, eluted by PPX digestion, SEC); not shown: EGFP, …
  stoichiometry N: 2
